Reference: US20220380454A1 (University of California, published 2022)

Assays:
[1] = molecular target: T1, oligomeric Aβ42 (biotin-Aβ42 oligomers) (human, biotin (human biotin-beta-Amyloid (1-42), AnaSpec); position not stated); assay: biotin-Aβ42 oligomers on transfected HEK293T cells, 488-conjugated streptavidin staining
T1 construct: Mixture of oligomers prepared from human Aβ42 (24-26 h at 4 °C, supernatant); The number of copies per oligomer is therefore not fixed; also called Aβ oligomers; oligomerized Aβ
Source text: Binding assay. HEK293 cells were transiently transfected (polyethylenimine) with expression vectors encoding TdTomato, Celsr3-Flag or control empty vectors (pCAGEN). […] DAPI was used to counterstain cell nuclei; TdTomato was used to monitor construct transfection. Anti-flag antibody was used to stain Celsr3. Fluorescent images were captured with Zeiss LSM 880 fast airyscan using a 63× oil-immersion objective.

[2] = molecular target: T1, oligomeric Aβ42 (biotin-Aβ42 oligomers); assay: biotin-Aβ42 oligomers on transfected HEK293T cells, streptavidin staining

Row | Binder | binding result [1] | binding result [2]
1 | Frizzled3-HA (receptor, not shown: small tags and cut ends, Expressed in transfected HEK293T cells; also called Fzd3-HA; HA-tagged Frizzled3) HSLFSCEPITLRMCQDLPYNTTFMPNLLNHYDQQTAALAMEPFHPMVNLDCSRDFRPFLCALYAPICMEYGRVTLPCRRLCQRAYSECSKLMEMFGVPWPEDMECSRFPDCDEPYPRLVDLNLVGDPTEGAPVAVQRDYGFWCPRELKIDPDLGYSFLHVRDCSPPCPNMYFRREELSFARYFIGLISIICLSATLFTFLTFLIDVTRFRYPERPIIFYAVCYMMVSLIFFIGFLLEDRVACNASSPAQYKASTVTQGSHNKACTMLFMVLYFFTMAGSVWWVILTITWFLAAVPKWGSEAIEKKALLFHASAWGIPGTLTIILLAMNKIEGDNISGVCFVGLYDVDALRYFVLAPLCLYVVVGVSLLLAGIISLNRVRIEIPLEKENQDKLVKFMIRIGVFSILYLVPLLVVIGCYFYEQAYRGIWETTWIQERCREYHIPCPYQVTQMSRPDLILFLMKYLMALIVGIPSIFWVGSKKTCFEWASFFHGRRKKEIVNESRQVLQEPDFAQSLLRDPNTPIIRKSRGTSTQGTSTHASSTQLAMVDDQRSKAGSVHSKVSSYHGSLHRSRDGRYTPCSYRGMEERLPHGSMSRLTDHSRHSSSHRLNEQSRHSSIRDLSNNPMTHITHGTSMNRVIEEDGTSA | no binding (tested: 200 nM total peptide, monomer equivalent) | –
2 | human Ryk-Flag (receptor, not shown: Flag tag) PPPLLLLLALLPLLPAPGAAAAPAPRPPELQSASAGPSVSLYLSEDEVRRLIGLDAELYYVRNDLISHYALSFSLLVPSETNFLHFTWHAKSKVEYKLGFQVDNVLAMDMPQVNISVQGEVPRTLSVFRVELSCTGKVDSEVMILMQLNLTVNSSKNFTVLNFKRRKMCYKKLEEVKTSALDKNTSRTIYDPVHAAPTTSTRVFYISVGVCCAVIFLVAIILAVLHLHSMKRIELDDSISASSSSQGLSQPSTQTTQYLRADTPNNATPITSSLGYPTLRIEKNDLRSVTLLEAKGKVKDIAISRERITLKDVLQEGTFGRIFHGILIDEKDPNKEKQAFVKTVKDQASEIQVTMMLTESCKLRGLHHRNLLPITHVCIEEGEKPMVILPYMNWGNLKLFLRQCKLVEANNPQAISQQDLVHMAIQIACGMSYLARREVIHKDLAARNCVIDDTLQVKITDNALSRDLFPMDYHCLGDNENRPVRWMALESLVNNEFSSASDVWAFGVTLWELMTLGQTPYVDIDPFEMAAYLKDGYRIAQPINCPDELFAVMACCWALDPEERPKFQQLVQCLTEFHAALGAYV | – | no binding (tested: 200 nM total peptide, monomer equivalent)
3 | mouse Ryk-HA (receptor, UniProt Q01887 35-594, looked up, whole, on cells; Expressed in HEK293T cells; not shown: HA tag) RSPALAAAPAGPSVSLYLSEDEVRRLLGLDAELYYVRNDLISHYALSFNLLVPSETNFLHFTWHAKSKVEYKLGFQVDNFVAMGMPQVNISAQGEVPRTLSVFRVELSCTGKVDSEVMILMQLNLTVNSSKNFTVLNFKRRKMCYKKLEEVKTSALDKNTSRTIYDPVHAAPTTSTRVFYISVGVCCAVIFLVAIILAVLHLHSMKRIELDDSISASSSSQGLSQPSTQTTQYLRADTPNNATPITSSSGYPTLRIEKNDLRSVTLLEAKAKVKDIAISRERITLKDVLQEGTFGRIFHGILVDEKDPNKEKQTFVKTVKDQASEVQVTMMLTESCKLRGLHHRNLLPITHVCIEEGEKPMVVLPYMNWGNLKLFLRQCKLVEANNPQAISQQDLVHMAIQIACGMSYLARREVIHRDLAARNCVIDDTLQVKITDNALSRDLFPMDYHCLGDNENRPVRWMALESLVNNEFSSASDVWAFGVTLWELMTLGQTPYVDIDPFEMAAYLKDGYRIAQPINCPDELFAVMACCWALDPEERPKFQQLVQCLTEFHAALGAYV | – | no binding (tested: 200 nM total peptide, monomer equivalent)
4 | Vangl2-Flag (other, not shown: small tags and cut ends) MDTESQYSGYSYKSGHSRSSRKHRDRRDRHRSKSRDGSRGDKSVTIQAPGEPLLDNESTRGDERDDNWGETTTVVTGTSEHSISHDDLTRIAKDMEDSVPLDCSRHLGVAAGAILALLSFLTPLAFLLLPPLLWREELEPCGTACEGLFISVAFKLLILLLGSWALFFRRPKASLPRVFVLRALLMVLVFLLVISYWLFYGVRILDARERSYQGVVQFAVSLVDALLFVHYLAVVLLELRQLQPQFTLKVVRSTDGASRFYNVGHLSIQRVAVWILEKYYHDFPVYNPALLNLPKSVLAKKVSGFKVYSLGEENSTNNSTGQSRAVIAAAARRRDNSHNEYYYEEAEHERRVRKRRARLVVAVEEAFTHIKRLQEEEQKNPREVMDPREAAQAIFASMARAMQKYLRTTKQQPYHTMESILQHLEFCITHDMTPKAFLERYLAAGPTIQYHKERWLAKQWTLVSEEPVTNGLKDGIVFLLKRQDFSLVVSTKKVPFFKLSEEFVDPKSHKFVMRLQSETSV | no binding (tested: 200 nM total peptide, monomer equivalent) | –
